Results from patent publication US20250082771A1, “DOSAGE REGIMEN OF AN ANTI-CDH6 ANTIBODY-DRUG CONJUGATE” (DAIICHI SANKYO COMPANY, LIMITED, priority 2022, published 2025).

Experiments:
Type in all cases: in vivo, human
OVC subjects = assay: Phase 1 dose escalation and expansion parts as of new cut-off date: tumor response, ORR and PFS
Description: (§1) The dose expansion part of the Phase 1 study was a multicenter, open-label, multiple-dose, first-in-human study of DS-6000a, which enrolled subjects in the United States (see clinicaltrials.gov identifier NCT 04707248). DS-6000a was administered intravenously every 3 weeks. The dose expansion part included administering to RCC and OVC subjects at RDEs. Initially, dose of 8.0 mg/kg was expanded, subsequently, the 6.4, 5.6 and 4.8 mg/kg doses were added as RDEs (FIG. 12).
(§2) Objective response rate (ORR), clinical benefit rate (CBR), and disease control rate (DCR) were summarized with 95% confidence intervals (CI) using the Clopper-Pearson method; duration of response (DOR) and progression-free survival (PFS) were summarized using the Kaplan-Meier method. Safety endpoints, PK parameters and plasma anti-drug antibodies were summarized using descriptive statistics.
(§3) After the initial data-cut, additional patients were enrolled in Phase 1 (both escalation and expansion), bringing the overall number of participants to sixty-seven (N=67). The demographic and baseline characteristics of the patient enrolled in dose escalation and expansion parts of the Phase 1 study as of new cut-off date are shown in FIG. 13. Subjects ranged in age from 34 to 83 years with a median age of 63 years. A median of 4 prior lines of therapy was administered. The prior lines of therapy comprise a platinum-based chemotherapeutic, a chemotherapeutic, a PARP inhibitor, an immune checkpoint inhibitor, an angiogenic inhibitor and a VEGFR-TKI. The subjects were 25.4% RCC, 74.6% OVC and 64.2% had Eastern Cooperative Oncology Group performance status (ECOG PS) of 1.
One confirmed CR and 14 confirmed PR were observed among 44 evaluable OVC subjects at doses ranging from 1.6 to 9.6 mg/kg. SD was reported for 24 subjects (FIG. 17).

RCC and OVC subjects [1] = assay: Phase 1 dose escalation part: safety and tolerability (TEAEs, DLT, RDE)
Description: (§4) The dose escalation part of the Phase 1 study was a multicenter, open-label, multiple-dose, first-in-human study of DS-6000a, which enrolled subjects in the United States (see clinicaltrials.gov identifier NCT 04707248). DS-6000a was administered intravenously every 3 weeks. In the dose escalation part, RCC and OVC subjects were enrolled and dose-limiting toxicity (DLT) was assessed during Cycle 1.
The primary objective of the dose escalation part was to investigate the safety and tolerability and determine the maximum-tolerated dose (MTD) and/or recommended dose for expansion (RDE).
(§5) Patient assessments included echocardiogram or multigated acquisition scan, 12-lead electrocardiogram, AEs, PK, human anti-human antibodies, biomarkers, and tumor assessments at prespecified visits. The demographic and baseline characteristics of the patient enrolled in this dose escalation part of the Phase 1 study are shown in FIG. 2.
(§6) For this dose escalation part of the Phase 1 study, Bayesian optimal interval (BOIN) design was used to estimate the MTD. Accelerated titration, treat a single subject at a dose level, was performed until any DLT or ≥Grade 2 AE possibly related to DS-6000a (excluding infusion-related reactions) is observed during Cycle 1. Objective response rate (ORR), clinical benefit rate (CBR), and disease control rate (DCR) were summarized with 95% confidence intervals (CI) using the Clopper-Pearson method; duration of response (DOR) and progression-free survival (PFS) were summarized using the Kaplan-Meier method. Safety endpoints, PK parameters and plasma anti-drug antibodies were summarized using descriptive statistics.

CA-125 [2] = assay: Phase 1 dose escalation part: CA-125 response (GCIG criteria)
Description: (§7) Secondary objectives included characterizing the pharmacokinetic (PK) properties of DS-6000a, total anti-CDH6 antibody, drug component and assessing the immunogenicity. Exploratory objectives included evaluating biomarker that correlate with efficacy and disease assessment in OVC using Gynecologic Cancer Intergroup (GCIG) criteria.

RCC and OVC subjects [3] = assay: Phase 1 dose escalation and expansion parts as of new cut-off date: safety and tolerability
Description: as §1
The primary objective of the dose expansion part was to evaluate the safety, tolerability, and efficacy at the RDEs.
Patient assessments included echocardiogram or multigated acquisition scan, 12-lead electrocardiogram, AEs, PK, human anti-human antibodies, biomarkers, and tumor assessments at prespecified visits.
as §2, §3
Subjects had received DS-6000a as monotherapy with a median treatment duration of 15.4 weeks (range 3.0 to 93.9 weeks). The number of patients in the dose escalation and expansion parts of the Phase 1 study as of new cut-off date with TEAE, which occurred in […] of patients, regardless of causality, is shown in FIG. 14.

CA-125 [4] = assay: Phase 1 dose escalation and expansion parts as of new cut-off date: CA-125 response
Description: as §7

RCC and OVC subjects [5] = assay: Phase 1 dose escalation part: tumor response per RECIST V1.1
Description: as §4, §5, §6

[6] = among 44 evaluable OVC subjects, 1.6 to 9.6 mg/kg, new cut-off date
[7] = dose escalation and expansion parts, new cut-off date, N=67
[8] = dose escalation part, among 24 efficacy evaluable patients

DS-6000a: anti-CDH6 antibody (SEQ ID NO: 69 positions 20-471; SEQ ID NO: 61 positions 21-233) bound via thioether bond to drug linker; DAR 7 to 8
preliminary efficacy signals by dose (OVC subjects; 4.8 and 6.4 mg/kg compared to 8.0 mg/kg, small sample size): better preliminary efficacy signals | median PFS (OVC subjects; OVC subjects, 3.2 mg/kg): 13.9 months | median PFS (OVC subjects; OVC subjects, 4.8 mg/kg): 7.9 months | median PFS (OVC subjects; OVC subjects, 6.4 mg/kg): 5.8 months | median PFS (OVC subjects; OVC subjects, 8.0 mg/kg): 5.6 months | median PFS (OVC subjects; OVC subjects, doses ranging from 1.6 to 9.6 mg/kg): 5.8 months | dose-effect on efficacy (OVC subjects; OVC subjects, higher dosing group, FIG. 16): consistent and pronounced reduction in tumor size | ORR compared to current standard of care (single-agent chemotherapies) in platinum resistant ovarian cancer (OVC subjects; OVC subjects, new cut-off date): Higher ORR | PFS compared to current standard of care (single-agent chemotherapies) in platinum resistant ovarian cancer (OVC subjects; OVC subjects, new cut-off date): Longer PFS | ORR (OVC subjects; among 41 evaluable OVC subjects with measurable disease at baseline, 1.6 to 9.6 mg/kg): 36.6% | confirmed CR (OVC subjects; [6]): One | confirmed PR (OVC subjects; [6]): 14 | patients discontinued due to PD per RECIST V1.1 (RCC and OVC subjects [1]; 1.6 mg/kg): 1 patients | patients discontinued due to clinical progression (RCC and OVC subjects [1]; 3.2 mg/kg): 1 patients | patients discontinued due to death (RCC and OVC subjects [1]; 3.2 mg/kg): One | patients required dose interruption (RCC and OVC subjects [1]; 3.2 mg/kg): 1 patients | patients discontinued due to clinical progression (RCC and OVC subjects [1]; 4.8 mg/kg): 1 patients | patients required dose interruption (RCC and OVC subjects [1]; 4.8 mg/kg): 2 patients | patients discontinued due to PD per RECIST V1.1 (RCC and OVC subjects [1]; 6.4 mg/kg): 2 patients | patients discontinued due to clinical progression (RCC and OVC subjects [1]; 6.4 mg/kg): 1 patients | patients required dose interruption (RCC and OVC subjects [1]; 6.4 mg/kg): 3 patients | patients discontinued due to PD per RECIST V1.1 (RCC and OVC subjects [1]; 8.0 mg/kg): 2 patients | patients discontinued due to clinical progression (RCC and OVC subjects [1]; 8.0 mg/kg): 1 patients | patients required dose interruption (RCC and OVC subjects [1]; 8.0 mg/kg): 1 patients | patients required dose reduction (RCC and OVC subjects [1]; 8.0 mg/kg): 1 patients | patients discontinued due to adverse event (RCC and OVC subjects [1]; 9.6 mg/kg): One | patients required dose interruption (RCC and OVC subjects [1]; 9.6 mg/kg): 2 patients | patients required dose reduction (RCC and OVC subjects [1]; 9.6 mg/kg): 2 patients | DLTs (RCC and OVC subjects [1]; 9.6 mg/kg, Cycle 1, Gr3 febrile neutropenia and Gr4 platelet count decreased): Two | serious TEAEs considered drug-related (RCC and OVC subjects [1]; Grade 3 anaemia and Grade 3 febrile neutropenia at 9.6 mg/kg): Two | RDE (recommended dose for expansion) (RCC and OVC subjects [1]; IV every 3 weeks): 8.0 mg/kg | grade of serious TEAEs (RCC and OVC subjects [1]; N=30): all events are Grade 3 | patients with serious TEAEs (RCC and OVC subjects [1]; N=30 (4/30)): 13.3% | patients reported Grade 23 related TEAE (RCC and OVC subjects [1]; N=30 (7/30), drug-related): 23.3% | patients reported Grade 23 TEAE (RCC and OVC subjects [1]; N=30 (10/30), regardless of causality): 33.3% | patients discontinued from treatment (RCC and OVC subjects [1]; N=30 (13 patients)): 43.3% | patients with drug-related TEAEs (RCC and OVC subjects [1]; N=30 (25 patients)): 83.3% | patients reported 21 TEAE (RCC and OVC subjects [1]; N=30 (26/30), regardless of causality, IV every 3 weeks): 86.7% | patients discontinued due to PD per RECIST V1.1 (RCC and OVC subjects [1]; N=30, all dose levels): 5 patients | patients discontinued due to clinical progression (RCC and OVC subjects [1]; N=30, all dose levels): Four | patients required dose interruption (RCC and OVC subjects [1]; N=30, all dose levels): Nine | patients required dose reduction (RCC and OVC subjects [1]; N=30, all dose levels): three | Grade 23 related TEAE neutrophil count decreased (RCC and OVC subjects [1]; N=30, drug-related): 16.7% | related TEAE decreased appetite (RCC and OVC subjects [1]; N=30, drug-related): 20.0% | related TEAE fatigue (RCC and OVC subjects [1]; N=30, drug-related): 56.7% | related TEAE nausea (RCC and OVC subjects [1]; N=30, drug-related): 60.0% | related TEAE neutrophil count decreased (RCC and OVC subjects [1]; N=30, drug-related): 23.3% | related TEAE vomiting (RCC and OVC subjects [1]; N=30, drug-related): 30.0% | Grade 23 TEAE anaemia (RCC and OVC subjects [1]; N=30, regardless of causality): 10.0% | Grade 23 TEAE hypokalemia (RCC and OVC subjects [1]; N=30, regardless of causality): 10.0% | Grade 23 TEAE neutrophil count decreased (RCC and OVC subjects [1]; N=30, regardless of causality): 16.7% | TEAE decreased appetite (RCC and OVC subjects [1]; N=30, regardless of causality): 40.0% | TEAE diarrhoea (RCC and OVC subjects [1]; N=30, regardless of causality): 20.0% | TEAE fatigue (RCC and OVC subjects [1]; N=30, regardless of causality): 63.3% | TEAE nausea (RCC and OVC subjects [1]; N=30, regardless of causality): 60.0% | TEAE neutrophil count decreased (RCC and OVC subjects [1]; N=30, regardless of causality): 23.3% | TEAE vomiting (RCC and OVC subjects [1]; N=30, regardless of causality): 46.7% | tolerability (RCC and OVC subjects [1]; as of data cut off): generally well tolerated | durability of CA-125 responses (CA-125 [2]; FIG. 8): durable | patients showed CA-125 responder (CA-125 [2]; among 17 efficacy evaluable OVC patients, at least 50% reduction in CA-125 from baseline, confirmed and maintained at least 28 days): 8 patients | CA-125 response rates by dose level (CA-125 [2]; dose level of 4.8 to 9.6 mg/kg): Higher CA-125 response rates | fatal cases (RCC and OVC subjects [3]; 8.0 mg/kg): 3 | tolerability (RCC and OVC subjects [3]; 8.0 mg/kg, frequent dose reduction/interruption compared to lower doses): not tolerated | doses at which well tolerated (RCC and OVC subjects [3]; dose escalation and expansion parts, new cut-off date): up to 6.4 mg/kg | most frequently reported Grade 23 events (RCC and OVC subjects [3]; [7]): hematological events | severity of the majority of the gastrointestinal events (RCC and OVC subjects [3]; [7]): Grade 1 or 2 | most frequently reported TEAEs (RCC and OVC subjects [3]; dose escalation and expansion parts, new cut-off date, N=67, monotherapy): gastrointestinal events (nausea, vomiting and diarrhea), fatigue, decreased appetite and hematological events (anaemia, neutrophil count decreased and platelet count decreased) | CA-125 response rates among dose levels (CA-125 [4]; OVC patients): High CA-125 response rates | CA-125 reductions (CA-125 [4]; OVC subjects, FIG. 18): deep and durable | patients showed CA-125 responder (CA-125 [4]; among 28 efficacy evaluable OVC patients, at least 50% reduction in CA-125 from baseline, confirmed and maintained at least 28 days): 15 patients | time stayed in treatment, one patient with SD (RCC and OVC subjects [5]; dose escalation part, 8.0 mg/kg): more than 180 days | tumor shrinkage in target lesion (RCC and OVC subjects [5]; dose escalation part, 3.2, 4.8, 6.4, 8.0 and 9.6 mg/kg dose levels): Tumor shrinkages were observed | durability of tumor responses (RCC and OVC subjects [5]; dose escalation part, FIG. 6): durable | PRs based on RECIST V1.1 (RCC and OVC subjects [5]; dose escalation part, RCC, among 24 efficacy evaluable patients): one | best percent change in sum of longest dimensions from baseline (tumor reduction) (RCC and OVC subjects [5]; dose escalation part, a patient in the 9.6 mg/kg dosing group): 68.8% | Non-CR/Non-PDs (RCC and OVC subjects [5]; [8]): 2 | PRs (including single point PRs, not yet confirmed responses) based on RECIST V1.1 (RCC and OVC subjects [5]; [8]): 6 | stable diseases (SDs) (RCC and OVC subjects [5]; [8]): 12 | PRs based on RECIST V1.1 (RCC and OVC subjects [5]; dose escalation part, platinum-resistant OVC, among 24 efficacy evaluable patients): five | maximum decrease in tumor size (RCC and OVC subjects [5]; one clear cell RCC patient, 3 prior therapies including ICI and VEGFR-TKI, 3.2 mg/kg, 51.4 weeks following initiation of treatment): 64.3% | maximum decrease in tumor size (RCC and OVC subjects [5]; one platinum-resistant OVC patient, 3 prior therapies including bevacizumab and PARP inhibitor, 6.4 mg/kg, 40.4 weeks following initiation of treatment): 35.7%
